Legend:
[1] = molecular target: T1, Myeloma human IgG3 (Sigma-Aldrich Co. LLC) (human); assay: indirect ELISA, antigen coated 1 µg/mL, antibody 1 µg/mL; no-antigen well 0.042
T1 construct: Bought myeloma protein
Experimental: (§1) Myeloma human IgA1 (Abcam), Myeloma human IgA2 (Abcam), Myeloma human IgD (Abcam), Myeloma human IgE (Abcam), Myeloma human IgM (Abcam), Myeloma human IgG1 (EMD Millipore), Myeloma human IgG2 (EMD Millipore), Myeloma human IgG3 (Sigma-Aldrich Co. LLC), and Myeloma human IgG4 (EMD Millipore) were adjusted to 1 μg/mL with PBS(−). The adjusted samples were added to a 96-well plate (Thermo Fisher Scientific) by 100 μL, respectively. The plate was shaken by a shaker under the condition of 700 rpm and 25.0° C. for 1 hour. The solutions were discarded, the plate was cleaned with 300 μL of PBST 3 times, 100 μL of a blocking buffer solution was added to each well, and then the plate was stored at 4° C. one night or more. Similarly, after cleaning with PBST, the MaI4-08 and MaI4-09-produced antibodies were adjusted to 1 μg/mL with an antibody dilute buffer solution and then added to each well by 100 μL, and the plate was shaken under the same condition as mentioned above. Similarly, after cleaning with PBST, a HRP labeled anti-mouse IgG antibody (Abcam) diluted 4000-fold with an antibody dilute buffer solution was added to each well by 100 μL, and the plate was shaken under the same condition as mentioned above. Similarly, after cleaning with PBST, 100 μL of SureBlue (KPL) was added. 5 or 3 minutes later, 100 μL of 0.5 mol/L sulfuric acid (Wako Pure Chemical Corporation) was added to each of MaI4-08 and MaI4-09. Absorbance at a wavelength of 450 nm was measured with a microplate reader (BIO-RAD Laboratories, Inc.). As a result, a strong signal was given to Myeloma human IgG4 as compared to the other samples (Tables 2 and 3, and FIGS. 2 and 3).

[2] = molecular target: Myeloma human IgE (Abcam) (human, UniProt P01854-1 1-428); assay: as above
Experimental: as §1

[3] = molecular target: Myeloma human IgA2 (Abcam) (human, UniProt P01877-1 1-340); assay: as above
Experimental: as §1

[4] = molecular target: Myeloma human IgM (Abcam) (human, UniProt P01871-1 1-453); assay: as above
Experimental: as §1

[5] = molecular target: Myeloma human IgD (Abcam) (human, UniProt P01880-1 1-384); assay: as above
Experimental: as §1

[6] = molecular target: T2, Myeloma human IgG1 (EMD Millipore) (human); assay: as above
T2 construct: Bought myeloma protein
Experimental: as §1

[7] = molecular target: T3, Myeloma human IgG2 (EMD Millipore) (human); assay: as above
T3 construct: Bought myeloma protein
Experimental: as §1

[8] = molecular target: T4, Myeloma human IgG4 (EMD Millipore) (human); assay: as above
T4 construct: Bought myeloma protein
Experimental: as §1

[9] = molecular target: Myeloma human IgA1 (Abcam) (human, UniProt P01876-1 1-353); assay: as above
Experimental: as §1

[10] = molecular target: T5, human IgG4 purified from human serum (human); assay: SPR (Biacore), IgG4 immobilized on chip by amino coupling, antibody as analyte
T5 construct: also called IgG4 antigen; human IgG4-sensitized latex
Experimental: MaI4-08 and MaI4-09-produced antibodies, and, as a control, MaI4-05-produced antibody and 1 mg/mL of HP6025 were adjusted to 1 mg/mL. In addition, 1 mg/mL of IgG4 was prepared from the one purified from human serum. According to the protocol of Sumika Chemical Analysis Service, Ltd., IgG4 was immobilized onto a chip by an amino coupling method, and a sensorgram was obtained by a Biacore model. The obtained binding rate constant (kₐ), dissociation rate constant (kd), and dissociation constant (KD) were as shown in Table 11.

[11] = molecular target: T1, Myeloma human IgG3 (Sigma-Aldrich Co. …); assay: latex agglutination inhibition; 3000 mg/dL myeloma protein as free sample against IgG4-sensitized latex, read on the IgG4 calibration curve
Experimental: (§2) In a case where the MaI4-08-produced antibody or the MaI4-09-produced antibody was used as an anti-human IgG4 mouse monoclonal antibody in the first reagent, specificity to human IgG4 was evaluated. As a sample, Myeloma human IgG4 solution (EMD Millipore) adjusted to 3000 mg/dL was used. In addition, as control samples, Myeloma human IgG1 solution (EMD Millipore), Myeloma human IgG2 solution (EMD Millipore), and Myeloma human IgG3 solution (Sigma-Aldrich Co. LLC) prepared similarly to the above were used. A saline solution was used as a blank sample. For the measurement of human IgG4 concentrations, 120 μL of the first reagent and 120 μL of the second reagent were reacted with 3 μL of a sample using Hitachi type 7180 automatic analyzer, and change amount of absorbance in the range of photometric points of 18 to 28 (corresponding to 1 minute to 4 minutes after addition of R2) was measured at a main wavelength of 570 nm and a complementary wavelength of 800 nm by a two-point end method (n=2). A calibration curve was created from the results of Table 8 and the human IgG4 concentration in a sample was calculated therefrom.

[12] = molecular target: T2, Myeloma human IgG1 (EMD Millipore); assay: as above
Experimental: as §2

[13] = molecular target: T3, Myeloma human IgG2 (EMD Millipore); assay: as above
Experimental: as §2

[14] = molecular target: T4, Myeloma human IgG4 (EMD Millipore); assay: as above
Experimental: as §2

T5 sequence (constant, as listed by the source limits assumed): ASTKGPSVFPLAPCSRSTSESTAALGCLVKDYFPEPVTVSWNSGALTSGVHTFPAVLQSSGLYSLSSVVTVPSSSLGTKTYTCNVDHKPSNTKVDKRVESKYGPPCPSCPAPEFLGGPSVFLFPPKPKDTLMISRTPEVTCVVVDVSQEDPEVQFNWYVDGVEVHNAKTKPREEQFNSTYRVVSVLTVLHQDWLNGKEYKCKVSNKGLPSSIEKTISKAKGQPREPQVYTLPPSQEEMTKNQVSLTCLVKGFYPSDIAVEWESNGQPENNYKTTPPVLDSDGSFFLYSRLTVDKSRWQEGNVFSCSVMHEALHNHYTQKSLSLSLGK
T3 sequence (constant, as listed by the source limits assumed): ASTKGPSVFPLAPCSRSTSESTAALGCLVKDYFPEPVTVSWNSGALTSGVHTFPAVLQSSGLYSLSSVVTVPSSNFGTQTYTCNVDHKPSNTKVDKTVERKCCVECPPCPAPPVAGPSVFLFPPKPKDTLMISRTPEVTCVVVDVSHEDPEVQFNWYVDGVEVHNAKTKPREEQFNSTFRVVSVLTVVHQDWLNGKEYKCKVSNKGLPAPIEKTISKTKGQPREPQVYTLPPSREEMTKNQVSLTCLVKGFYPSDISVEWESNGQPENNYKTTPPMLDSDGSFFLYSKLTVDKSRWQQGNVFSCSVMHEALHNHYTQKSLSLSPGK
T1 sequence (constant, as listed by the source limits assumed): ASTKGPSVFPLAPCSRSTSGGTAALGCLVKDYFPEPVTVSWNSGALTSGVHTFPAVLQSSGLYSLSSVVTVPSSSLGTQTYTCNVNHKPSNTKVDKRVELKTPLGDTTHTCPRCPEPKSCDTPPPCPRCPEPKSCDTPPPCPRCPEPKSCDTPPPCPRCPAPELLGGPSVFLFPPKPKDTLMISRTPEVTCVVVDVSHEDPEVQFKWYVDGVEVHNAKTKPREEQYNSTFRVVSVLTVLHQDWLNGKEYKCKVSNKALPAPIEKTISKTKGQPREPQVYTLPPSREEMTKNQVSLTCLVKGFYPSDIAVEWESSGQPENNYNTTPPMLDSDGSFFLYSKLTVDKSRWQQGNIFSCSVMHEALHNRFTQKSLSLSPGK
T2 sequence (constant, as listed by the source limits assumed): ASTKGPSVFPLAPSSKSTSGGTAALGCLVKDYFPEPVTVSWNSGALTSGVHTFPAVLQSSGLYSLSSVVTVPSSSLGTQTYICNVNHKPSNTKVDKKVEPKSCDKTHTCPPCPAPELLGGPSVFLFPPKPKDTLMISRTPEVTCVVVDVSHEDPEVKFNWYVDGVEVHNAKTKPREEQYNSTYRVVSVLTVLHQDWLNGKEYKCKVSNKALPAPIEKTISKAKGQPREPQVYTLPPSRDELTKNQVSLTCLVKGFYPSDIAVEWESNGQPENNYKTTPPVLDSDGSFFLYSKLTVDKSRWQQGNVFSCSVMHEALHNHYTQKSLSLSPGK
Myeloma human IgM (Abcam), sequence (P01871 other isoform, or with tags, fused parts or gaps): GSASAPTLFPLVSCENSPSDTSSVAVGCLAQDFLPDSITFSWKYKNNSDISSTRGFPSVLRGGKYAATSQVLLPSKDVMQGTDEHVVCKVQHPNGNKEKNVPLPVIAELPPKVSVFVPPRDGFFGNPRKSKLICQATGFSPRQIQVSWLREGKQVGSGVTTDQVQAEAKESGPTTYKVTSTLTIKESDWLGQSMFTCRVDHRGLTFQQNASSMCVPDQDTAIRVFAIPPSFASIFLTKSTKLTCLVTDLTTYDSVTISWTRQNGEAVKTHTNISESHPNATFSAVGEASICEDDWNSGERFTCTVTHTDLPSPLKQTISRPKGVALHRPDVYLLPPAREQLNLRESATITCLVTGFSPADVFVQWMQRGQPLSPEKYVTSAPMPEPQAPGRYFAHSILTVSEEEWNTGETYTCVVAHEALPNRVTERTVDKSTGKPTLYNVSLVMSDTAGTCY
Myeloma human IgA1 (Abcam), sequence (P01876 other isoform, or with tags, fused parts or gaps): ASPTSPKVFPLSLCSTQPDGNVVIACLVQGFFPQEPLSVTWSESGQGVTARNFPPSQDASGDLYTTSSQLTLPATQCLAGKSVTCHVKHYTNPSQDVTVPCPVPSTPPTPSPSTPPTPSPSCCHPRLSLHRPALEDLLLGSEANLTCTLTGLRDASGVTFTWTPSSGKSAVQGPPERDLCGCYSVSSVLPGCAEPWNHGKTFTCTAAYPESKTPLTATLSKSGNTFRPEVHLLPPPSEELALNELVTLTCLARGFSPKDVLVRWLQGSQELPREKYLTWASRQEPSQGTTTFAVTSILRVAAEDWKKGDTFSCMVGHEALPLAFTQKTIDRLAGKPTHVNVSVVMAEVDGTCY
Myeloma human IgD (Abcam), sequence (P01880 other isoform, or with tags, fused parts or gaps): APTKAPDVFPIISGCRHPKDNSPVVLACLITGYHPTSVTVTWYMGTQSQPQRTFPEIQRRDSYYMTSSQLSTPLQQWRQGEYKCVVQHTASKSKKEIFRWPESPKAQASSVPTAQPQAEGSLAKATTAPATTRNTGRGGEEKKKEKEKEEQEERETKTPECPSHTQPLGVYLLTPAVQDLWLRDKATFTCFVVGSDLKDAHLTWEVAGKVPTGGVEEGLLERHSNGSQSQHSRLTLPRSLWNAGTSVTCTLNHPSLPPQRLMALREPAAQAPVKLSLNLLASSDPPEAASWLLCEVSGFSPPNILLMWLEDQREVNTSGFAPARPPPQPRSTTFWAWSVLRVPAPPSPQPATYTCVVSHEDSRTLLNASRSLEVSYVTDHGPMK
Myeloma human IgA2 (Abcam), sequence (P01877 other isoform, or with tags, fused parts or gaps): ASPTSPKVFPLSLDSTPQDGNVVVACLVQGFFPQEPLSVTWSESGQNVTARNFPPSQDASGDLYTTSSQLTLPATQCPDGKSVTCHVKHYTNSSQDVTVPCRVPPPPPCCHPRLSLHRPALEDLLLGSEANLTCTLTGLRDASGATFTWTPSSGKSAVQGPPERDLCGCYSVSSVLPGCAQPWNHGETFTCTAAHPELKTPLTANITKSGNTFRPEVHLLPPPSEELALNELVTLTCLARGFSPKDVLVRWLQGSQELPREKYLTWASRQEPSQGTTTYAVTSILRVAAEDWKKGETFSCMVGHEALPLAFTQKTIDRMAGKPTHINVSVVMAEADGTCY
Myeloma human IgE (Abcam), sequence (P01854 other isoform, or with tags, fused parts or gaps): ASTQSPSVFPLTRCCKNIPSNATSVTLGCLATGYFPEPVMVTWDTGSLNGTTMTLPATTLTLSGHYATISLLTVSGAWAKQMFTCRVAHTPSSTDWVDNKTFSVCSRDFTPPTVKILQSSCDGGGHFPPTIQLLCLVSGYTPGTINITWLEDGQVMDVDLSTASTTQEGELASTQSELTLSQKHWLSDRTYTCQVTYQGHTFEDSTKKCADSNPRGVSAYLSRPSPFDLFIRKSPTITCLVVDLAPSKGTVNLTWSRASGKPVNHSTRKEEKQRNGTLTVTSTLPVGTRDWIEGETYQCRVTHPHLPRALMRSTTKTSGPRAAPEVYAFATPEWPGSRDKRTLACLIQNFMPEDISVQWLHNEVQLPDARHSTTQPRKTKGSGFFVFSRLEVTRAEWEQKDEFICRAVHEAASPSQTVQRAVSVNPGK

B1: MaI4-08-produced antibody (antibody, IgG1, V domains shown)
VH: EVQLQQSGPELVKPGTSVKMSCKASGYIFTSYILHWVKQKPGQGLEWIAYINPYNDGTKYKEKFKGKGTLTSDKSSSTAYMELSSLTSEDSAVYYCARSGGGYGNYAWFAYWGPGTLVTVST
VL: DIQMTQSPSSLSASLGERVSLTCRASQDIGSSLNWLQQEPDGTIKRLIYATSSLDSGVPKRFSGSRSGSDYSLTISSLESEDFVDYYCLQYASYPPTFGAGTKLELK
notes: Purified on protein G from hybridoma culture supernatant; POD-labelled for the Western blots
[1]
  absorbance at 450 nm: 0.044
[2]
  absorbance at 450 nm: 0.041
[3]
  absorbance at 450 nm: 0.043
[4]
  absorbance at 450 nm: 0.042
[5]
  absorbance at 450 nm: 0.042
[6]
  absorbance at 450 nm: 0.048
[7]
  absorbance at 450 nm: 0.047
[8]
  absorbance at 450 nm: 2.04
[9]
  absorbance at 450 nm: 0.043
[10]
  Kd: 0.406 nM
  koff: 0.000223 s⁻¹
  kon: 549000 M⁻¹ s⁻¹
[11]
  Measured value (apparent human IgG4 concentration): 4.1 mg/dL
[12]
  Measured value (apparent human IgG4 concentration): 10.1 mg/dL
[13]
  Measured value (apparent human IgG4 concentration): 12.8 mg/dL
[14]
  Measured value (apparent human IgG4 concentration): 1090 mg/dL
